Ends that are not written are not given here. * marks the point of attachment. Pentanoyl = CCCCC(=O)*
How the values were obtained:
[1] = target: T1, His-tagged, full-length PCSK9 (human, UniProt Q8NBP7 31-692); assay: TR-FRET competition; His-PCSK9, competitor EGF(A)-Fc
T1 construct: The secreted protein is autocleaved into a prodomain and a catalytic/Cys-rich chain that starts at S153; also called His-PCSK9

[2] = target: T2, His-tagged PCSK9Δhelix (human, UniProt Q8NBP7 31-152; Q8NBP7 168-692); assay: TR-FRET competition; His-PCSK9Δhelix, competitor Ab20
T2 construct: Construct M1-Q692 with engineered TEV site, cut by TEV protease; new N-terminus of the catalytic domain is S-A168; also called His-PCSK9Δhelix
T2 sequence (Q8NBP7 31-152, stated change not applied, chain 1 of 2): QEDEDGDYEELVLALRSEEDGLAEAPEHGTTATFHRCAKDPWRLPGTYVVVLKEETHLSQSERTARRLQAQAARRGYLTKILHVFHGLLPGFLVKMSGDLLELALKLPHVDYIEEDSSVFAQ
T2 sequence (Q8NBP7 other isoform, or with tags, fused parts or gaps mutant, chain 2 of 2): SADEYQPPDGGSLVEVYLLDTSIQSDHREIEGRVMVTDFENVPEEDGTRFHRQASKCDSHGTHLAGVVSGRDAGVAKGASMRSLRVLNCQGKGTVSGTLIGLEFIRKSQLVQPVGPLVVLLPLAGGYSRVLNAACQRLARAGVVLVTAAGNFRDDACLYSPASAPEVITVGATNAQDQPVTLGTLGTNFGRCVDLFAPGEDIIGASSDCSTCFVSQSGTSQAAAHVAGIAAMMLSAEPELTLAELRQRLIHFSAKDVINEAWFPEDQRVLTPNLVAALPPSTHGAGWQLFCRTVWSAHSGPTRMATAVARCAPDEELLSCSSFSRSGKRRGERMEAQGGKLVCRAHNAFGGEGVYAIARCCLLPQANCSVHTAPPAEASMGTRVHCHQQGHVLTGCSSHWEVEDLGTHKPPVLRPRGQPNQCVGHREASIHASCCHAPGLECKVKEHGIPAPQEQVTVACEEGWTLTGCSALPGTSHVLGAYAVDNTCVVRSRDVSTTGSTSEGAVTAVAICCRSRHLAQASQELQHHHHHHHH

T1 sequence (Q8NBP7 other isoform, or with tags, fused parts or gaps limits assumed): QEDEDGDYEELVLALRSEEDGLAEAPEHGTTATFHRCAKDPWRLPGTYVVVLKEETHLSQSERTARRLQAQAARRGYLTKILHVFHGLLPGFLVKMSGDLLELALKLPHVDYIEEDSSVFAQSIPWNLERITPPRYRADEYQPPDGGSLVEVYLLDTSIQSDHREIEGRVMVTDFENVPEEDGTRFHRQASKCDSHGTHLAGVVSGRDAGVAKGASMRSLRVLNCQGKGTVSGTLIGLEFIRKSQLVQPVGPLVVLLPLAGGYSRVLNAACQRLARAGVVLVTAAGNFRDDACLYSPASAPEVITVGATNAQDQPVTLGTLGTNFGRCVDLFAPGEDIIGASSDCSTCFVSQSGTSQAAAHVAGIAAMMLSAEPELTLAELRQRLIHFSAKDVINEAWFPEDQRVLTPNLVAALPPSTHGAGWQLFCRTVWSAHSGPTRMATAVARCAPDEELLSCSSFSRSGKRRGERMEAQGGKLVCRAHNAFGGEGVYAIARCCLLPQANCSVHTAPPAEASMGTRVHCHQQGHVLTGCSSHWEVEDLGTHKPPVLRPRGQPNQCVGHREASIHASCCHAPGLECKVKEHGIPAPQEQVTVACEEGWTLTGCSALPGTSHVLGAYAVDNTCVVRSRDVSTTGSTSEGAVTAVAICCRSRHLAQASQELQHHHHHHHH

| Binder | IC50 [1] [µM] | IC50 [2] [µM] |
| --- | --- | --- |
| {n‑PrC(O)}-WNLVRIGLLR-NH2 [Compound 123] | ≥ 50 | 18 |
| WNLVRIGLTR (also: further groups not given here, Structure printed only as a drawing) [Compound 163] | ≥ 50 | 37 |
| Pentanoyl-WNLKRIGLLR-NH2 (SMILES CCCCC(=O)N[C@@H](Cc1c[nH]c2ccccc12)C(=O)N[C@@H](CC(N)=O)C(=O)N[C@@H](CC(C)C)C(=O)N[C@@H](CCCCN)C(=O)N[C@@H](CCCNC(=N)N)C(=O)N[C@H](C(=O)NCC(=O)N[C@@H](CC(C)C)C(=O)N[C@@H](CC(C)C)C(=O)N[C@@H](CCCNC(=N)N)C(N)=O)[C@@H](C)CC) [Compound 159] | ≥ 50 | 6.6 |
| WNLVRIGLTR (also: further groups not given here, Structure printed only as a drawing) [Compound 168] | ≥ 50 | 7.8 |
| WNLVRIGLTR (also: further groups not given here, Structure printed only as a drawing) [Compound 166] | ≥ 50 | 5.9 |
| WNLVRIGLTR (also: further groups not given here, Structure printed only as a drawing) [Compound 162] | ≥ 50 | 37 |
| WNLVRIGLTR (also: further groups not given here, Structure printed only as a drawing) [Compound 161] | ≥ 50 | 5 |
| WNLVRIGLTR (also: further groups not given here, Structure printed only as a drawing) [Compound 165] | ≥ 50 | 18 |
| WNLVRIGLTR (also: further groups not given here, Structure printed only as a drawing) [Compound 169] | ≥ 50 | 6.8 |
| WNLVRIGLTR (also: further groups not given here, Structure printed only as a drawing) [Compound 167] | ≥ 50 | 43 |
| WNLVRIGLTR (also: further groups not given here, Structure printed only as a drawing) [Compound 164] | ≥ 50 | 12 |
| Ac-SGDLMPWNLVRIGLLR-NH2 [Compound 122] |  | 5.6 |

The remaining lines, values ahead:

| IC50 [1] [µM] | IC50 [2] [µM] | Binder |
| --- | --- | --- |
| 14 | 4 | WNLVRIGTLR (also: further groups not given here, Structure printed only as a drawing) [Compound 182] |
| ≥ 50 | 3.1 | WNLVRIGLTR (also: further groups not given here, Structure printed only as a drawing) [Compound 170] |
| ≥ 50 | 7.7 | WNLVRIGLTR (also: further groups not given here, Structure printed only as a drawing) [Compound 171] |
| ≥ 50 | 8.9 | Pentanoyl-WNLVRIGLSR-NH2 (SMILES CCCCC(=O)N[C@@H](Cc1c[nH]c2ccccc12)C(=O)N[C@@H](CC(N)=O)C(=O)N[C@@H](CC(C)C)C(=O)N[C@H](C(=O)N[C@@H](CCCNC(=N)N)C(=O)N[C@H](C(=O)NCC(=O)N[C@@H](CC(C)C)C(=O)N[C@@H](CO)C(=O)N[C@@H](CCCNC(=N)N)C(N)=O)[C@@H](C)CC)C(C)C) [Compound 181] |
| ≥ 50 | 8.5 | WNLVRIGLTR (also: further groups not given here, Structure printed only as a drawing) [Compound 172] |
| 18 | 2.5 | WNLVRIGTLR (also: further groups not given here, Structure printed only as a drawing) [Compound 183] |
| 22 | 7.6 | WNLVRIGLTR (also: further groups not given here, Structure printed only as a drawing) [Compound 188] |
| 19 | 12 | WNLVRIGTLR (also: further groups not given here, Structure printed only as a drawing) [Compound 184] |
| ≥ 50 | 12 | Pentanoyl-WNLVRIGLAR-NH2 (SMILES CCCCC(=O)N[C@@H](Cc1c[nH]c2ccccc12)C(=O)N[C@@H](CC(N)=O)C(=O)N[C@@H](CC(C)C)C(=O)N[C@H](C(=O)N[C@@H](CCCNC(=N)N)C(=O)N[C@H](C(=O)NCC(=O)N[C@@H](CC(C)C)C(=O)N[C@@H](C)C(=O)N[C@@H](CCCNC(=N)N)C(N)=O)[C@@H](C)CC)C(C)C) [Compound 180] |
| ≥ 50 | 18 | Pentanoyl-WNLVRIGLTR [Compound 176] |
| ≥ 50 | 35 | Pentanoyl-WNLVRIGLER-NH2 (SMILES CCCCC(=O)N[C@@H](Cc1c[nH]c2ccccc12)C(=O)N[C@@H](CC(N)=O)C(=O)N[C@@H](CC(C)C)C(=O)N[C@H](C(=O)N[C@@H](CCCNC(=N)N)C(=O)N[C@H](C(=O)NCC(=O)N[C@@H](CC(C)C)C(=O)N[C@@H](CCC(=O)O)C(=O)N[C@@H](CCCNC(=N)N)C(N)=O)[C@@H](C)CC)C(C)C) [Compound 177] |
| 5.7 | 0.39 | WNLVRIGTLR (also: further groups not given here, Structure printed only as a drawing) [Compound 185] |
| ≥ 50 | 11 | Pentanoyl-WNLVRIGLGR-NH2 (SMILES CCCCC(=O)N[C@@H](Cc1c[nH]c2ccccc12)C(=O)N[C@@H](CC(N)=O)C(=O)N[C@@H](CC(C)C)C(=O)N[C@H](C(=O)N[C@@H](CCCNC(=N)N)C(=O)N[C@H](C(=O)NCC(=O)N[C@@H](CC(C)C)C(=O)NCC(=O)N[C@@H](CCCNC(=N)N)C(N)=O)[C@@H](C)CC)C(C)C) [Compound 179] |
| ≥ 50 | 9.8 | WNLVRIGLTR (also: further groups not given here, Structure printed only as a drawing) [Compound 173] |
| ≥ 50 | 18 | Pentanoyl-WNLVRIGLDR-NH2 (SMILES CCCCC(=O)N[C@@H](Cc1c[nH]c2ccccc12)C(=O)N[C@@H](CC(N)=O)C(=O)N[C@@H](CC(C)C)C(=O)N[C@H](C(=O)N[C@@H](CCCNC(=N)N)C(=O)N[C@H](C(=O)NCC(=O)N[C@@H](CC(C)C)C(=O)N[C@@H](CC(=O)O)C(=O)N[C@@H](CCCNC(=N)N)C(N)=O)[C@@H](C)CC)C(C)C) [Compound 178] |
